These results are taken from article PMC12059646, “Functional Characterization of Luciferase in a Brittle Star Indicates Parallel Evolution Influenced by Genomic Availability of Haloalkane Dehalogenase” (Molecular Biology and Evolution, 2025).

In one data set the test system is T1, AfLuc.
T1 construct: codon-optimised synthetic gene in pET21b, E. coli BL21, Ni-NTA purified
In words: luminescence steady-state kinetics, global numerical analysis. The format is biochemical, Amphiura filiformis. The settings on record: 25 nM protein.

Substrate in data set [1]: Oc1ccc(Cc2nc3c(Cc4ccccc4)nc(-c4ccc(O)cc4)cn3c2O)cc1
The data set is described as above. It counts as biochemical, Renilla reniformis. The settings on record: 25 nM protein.

As to `Oc1ccc(Cc2nc3c(Cc4ccccc4)nc(-c4ccc(O)cc4)cn3c2O)cc1` [coelenterazine], the Km (in general, the concentration of substrate that gives half-maximal velocity) in the data set with AfLuc was 1.21 ± 0.03 µM.

B1: RLuc (Renilla reniformis) (protein)
chain: MTSKVYDPEQRKRMITGPQWWARCKQMNVLDSFINYYDSEKHAENAVIFLHGNAASSYLWRHVVPHIEPVARCIIPDLIGMGKSGKSGNGSYRLLDHYKYLTAWFELLNLPKKIIFVGHDWGACLAFHYSYEHQDKIKAIVHAESVVDVIESWDEWPDIEEDIALIKSEEGEKMVLENNFFVETMLPSKIMRKLEPEEFAAYLEPFKEKGEVRRPTLSWPREIPLVKGGKPDVVQIVRNYNAYLRASDDLPKMFIESDPGFFSNAIVEGAKKFPNTEFVKVKGLHFSQEDAPDEMGKYIKSFVERVLKNEQ
notes: codon-optimised synthetic gene in pET21b, E. coli BL21, Ni-NTA purified
Turning to B1, in data set [1], the Km worked out at 0.91 ± 0.05 µM; the kcat (as a rule, the number of substrate molecules converted per active site and unit of time at saturation) amounted to 4.2 ± 0.2 s⁻¹.
